Test results: patent publication US20240383992A1 (ORICELL THERAPEUTICS, published 2024)
Changes are numbered by the printed parent chain.

B1: hBCMA-17 CAR (other)
chain: EIVLTQSPATLSLSPGERATLSCRASESVSVSGIHLLHWYQQKPGQAPRLLIYLGRNRAAGIPARFSGSGSGTDFTLTISSLEPEDAAIYYCLQSRRFPRHFGQGTKLEIKGSTSGSGKPGSGEGSTKGQVQLVQSGAEVKKPGASVKVSCKASGYTFADYTINWVRQATGQGLEWMGWINTETREPTYAYDFRSRFTFTLNTSISTAYLELSSLRSEDTAVYYCARDIRYVMDYWGQGTLVTVSSTTTPAPRPPTPAPTIASQPLSLRPEACRPAAGGAVHTRGLDFACDIYIWAPLAGTCGVLLLSLVITLYCKRGRKKLLYIFKQPFMRPVQTTQEEDGCSCRFPEEEEGGCELRVKFSRSADAPAYQQGQNQLYNELNLGRREEYDVLDKRRGRDPEMGGKPRRKNPQEGLYNELQKDKMAEAYSEIGMKGERRRGKGHDGLYQGLSTATKDTYDALHMQALPPR
B2: hBCMA-23 CAR (other)
chain: B1 chain with S32P, H35S, L36F, L37I, R56S, A59P, A60S
B3: hBCMA-22 CAR (other)
chain: B1 chain with S32P, H35S, L36F, L37I, R56S, A59P, A60S, T188A, S195G
B4: hBCMA-19 CAR (other)
chain: B1 chain with S32P, H35S, L36F, L37I, T188A, S195G
B5: hBCMA-20 CAR (other)
chain: B1 chain with S32P, H35S, L36F, L37I

Biological target: T1, BCMA expressed on MM1s cells (UniProt Q02223 1-184, limits assumed)
T1 sequence (looked up): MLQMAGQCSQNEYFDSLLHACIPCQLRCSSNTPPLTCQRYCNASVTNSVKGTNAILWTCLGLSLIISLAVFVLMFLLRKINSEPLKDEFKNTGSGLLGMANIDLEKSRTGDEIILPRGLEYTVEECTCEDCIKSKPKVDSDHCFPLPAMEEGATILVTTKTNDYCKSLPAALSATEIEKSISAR
Experiment: cell-based or functional assay

| Binder | killing toxicity against the target cell at effector-to-target ratio 1:1 [%] | killing toxicity against the target cell at effector-to-target ratio 3:1 [%] |
| --- | --- | --- |
| B1 | > 20 | > 70 |
| B2 | > 20 | > 70 |
| B3 | > 20 | > 70 |
| B4 | > 20 | > 70 |
| B5 | > 20 | > 70 |
